From patent publication WO2009024653A1 (dated 2009)

What was measured:
[1] = target: T1, RHD5, human monoclonal IgG1 antibody directed against the C1 domain of factor VIII (LMBP 6165CB); experiment: SPR (Biacore), RHD5 immobilised on a CM5 chip, 18B6 injected
T1 construct: Human IgG1; also called anticorps RHD5; anti-C1 antibody

[2] = target: T1, RHD5, human monoclonal IgG1 antibody …; experiment: competition ELISA, coated recFVIII, RHD5 at 2 ug/ml pre-incubated with 18B6
[3] = target: T1, RHD5, human monoclonal IgG1 antibody …; experiment: cell-based or functional assay

T1 sequence (VH, as listed by the source, chain 1 of 2): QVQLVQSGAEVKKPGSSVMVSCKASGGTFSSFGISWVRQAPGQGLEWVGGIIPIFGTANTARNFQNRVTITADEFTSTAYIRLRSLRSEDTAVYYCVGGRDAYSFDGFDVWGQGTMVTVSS
T1 sequence (VL, as listed by the source, chain 2 of 2): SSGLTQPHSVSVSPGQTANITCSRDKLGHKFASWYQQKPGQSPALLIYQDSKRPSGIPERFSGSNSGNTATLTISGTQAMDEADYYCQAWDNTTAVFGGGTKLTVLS

koff [1]: 1.45e-05 s⁻¹
kon [1]: 4260 M⁻¹ s⁻¹
RHD5/18B6 molar ratio at 50% inhibition of RHD5 binding to FVIII [2]: 2.5 molar ratio RHD5/18B6
percent inhibition of RHD5 binding to FVIII at an equimolar ratio [2]: 92%
neutralisation of the inhibitory (anti-FVIII) activity of RHD5, chromogenic factor VIII test (DADE), RHD5 0.4 ug/ml, FVIII Kogenate 0.5 U/ml [3]: 50 % neutralisation at an equimolar RHD5/18B6 ratio
B1: anti-idiotypic monoclonal antibody 18B6 (produced by hybridoma 18B6, CNCM I-3559) (antibody, mouse IgG1, V domains shown)
VH: QVQLQQSGAELAKPGASVKMSCKASGYTFTTYWMHWIKQRPGQDLEWIGYINPTSGYTEYNQNFKDKATLTADKSSSTAYMQLNSLTSEDSAVYFCARSGAYYRYDDAMDSWGQGTSVTVSS
VL: QIVLSQSPAILSASPGEKVTMTCRASSSVSYMNWYQQKPGSSPKPWIYATSNLASGVPARFSGSGSGTSYSLTISRVEAEDAATYYCQQWSSNPPMLTFGAGTKLELK
notes: also called anticorps anti-idiotypique 18B6; clone 18B6 anti-RHD5
